# B1: SpoIIIE-GFP fusion (natural protein, B. subtilis, UniProt P21458 1-787, looked up)
# chain: MAKKKRKSRKKQAKQLNIKYELNGLLCIAISIIAILQLGVVGQTFIYLFRFFAGEWFILCLLGLLVLGVSLFWKKKTPSLLTRRKAGLYCIIASILLLSHVQLFKNLTHKGSIESASVVRNTWELFLMDMNGSSASPDLGGGMIGALLFAASHFLFASTGSQIMAIVMILIGMILVTGRSLQETLKKWMSPIGRFIKEQWLAFIDDMKSFKSNMQSSKKTKAPSKKQKPARKKQQMEPEPPDEEGDYETVSPLIHSEPIISSFSDRNEEEESPVIEKRAEPVSKPLQDIQPETGDQETVSAPPMTFTELENKDYEMPSLDLLADPKHTGQQADKKNIYENARKLERTFQSFGVKAKVTQVHLGPAVTKYEVYPDVGVKVSKIVNLSDDLALALAAKDIRIEAPIPGKSAIGIEVPNAEVAMVSLKEVLESKLNDRPDAKLLIGLGRNISGEAVLAELNKMPHLLVAGATGSGKSVCVNGIITSILMRAKPHEVKMMMIDPKMVELNVYNGIPHLLAPVVTDPKKASQALKKVVNEMERRYELFSHTGTRNIEGYNDYIKRANNEEGAKQPELPYIVVIVDELADLMMVASSDVEDSITRLSQMARAAGIHLIIATQRPSVDVITGVIKANIPSRIAFSVSSQTDSRTILDMGGAEKLLGRGDMLFLPVGANKPVRVQGAFLSDDEVEKVVDHVITQQKAQYQEEMIPEETTETHSEVTDELYDEAVELIVGMQTASVSMLQRRFRIGYTRAARLIDAMEERGVVGPYEGSKPREVLLSKEKYDELSS
# notes: SpoIIIE DNA translocase of Bacillus subtilis (strain PY79 derivative); the SpoIIIE gene was replaced by a SpoIIIE-GFP fusion, no wild-type copy left; The fusion is said to be fully functional, so it is probably the whole protein; also called SpoIIIE ATPase; SpoIIIE DNA translocase; source: B. subtilis PY79 derivative, SpoIIIE-GFP fusion under the endogenous promoter, in live cells
# Target: the molecule itself
# Test: two-photon number and brightness analysis (N&B, fluorescence fluctuation microscopy); live B. subtilis cells with SpoIIIE-GFP; clusters at sporulation and division septa, after induction of sporulation or in exponential growth; brightness normalised to monomeric freely diffusing GFP; excitation at 930 nm, 50 raster scans
protein,measurement,value
B1,stoichiometry N,6

# From paper PMC3646729, “Recruitment, Assembly, and Molecular Architecture of the SpoIIIE DNA Pump Revealed by Superresolution Microscopy” (PLoS Biology, 2013)
